# Measured values: publication PMC10629668
# Biological target: serpin-6, endogenous in silkworm hemolymph (Bombyx mori (endogenous in larval hemolymph))
# Assay: co-IP; antibodies against serpin-1 or serpin-6; hemolymph of naive larvae or of larvae 24 h after injection of LPS, PGN or CDN; immunoblot with antibodies against serpin-1a, serpin-6 and CLIP2
substance,measurement,value
"CLIP2, endogenous in silkworm hemolymph (enzyme)","intensity of the complex against the CLIP2-serpin-1a complex (after PAMPs stimulation, control hemolymph subtracted)",2 fold
